The source of these data is publication PMC4256047, “Structural and Functional Profiling of Environmental Ligands for Estrogen Receptors” (Environmental Health Perspectives, 2014).

What all share (settings): both partners purified
Experiment [1] has as its target T1, human wt-ERβ LBD (estrogen receptor beta ligand-binding domain, amino acids 261-502) (human, UniProt Q92731 261-502).
T1 construct: Cloned into pET-32a; N-terminal thioredoxine-hexahistidine tag removed with TEV protease; not shown: thioredoxin, N-terminal, cleaved; His6, N-terminal, cleaved
The experiment can be described thus: fluorescence polarisation; fluorescence anisotropy; 4 nM fluorescein-SRC-1 NR2 peptide, LBD diluted 2-fold from 10 uM (ERα) or 20 uM (ERβ); with E2 at 20 uM (ERα) or 40 uM (ERβ); 20 mM Tris pH 8.0, 150 mM NaCl, 5 mM DTT, 10% glycerol. On the technique in general: In fluorescence polarisation assays a small probe gives low polarisation when free and higher when bound to something large.

Experiment [2] addresses T2, human wt-ERα LBD (estrogen receptor alpha ligand-binding domain, amino acids 302-552) (human, UniProt P03372 302-552).
T2 sequence (looked up): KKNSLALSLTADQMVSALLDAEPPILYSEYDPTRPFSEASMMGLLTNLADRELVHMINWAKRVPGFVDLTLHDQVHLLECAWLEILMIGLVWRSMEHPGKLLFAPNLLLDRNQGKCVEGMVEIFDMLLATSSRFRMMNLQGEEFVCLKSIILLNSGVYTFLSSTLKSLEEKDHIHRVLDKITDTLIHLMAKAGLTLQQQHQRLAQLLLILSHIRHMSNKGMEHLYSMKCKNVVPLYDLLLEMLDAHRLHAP
The experiment in a line: fluorescence polarisation; fluorescence anisotropy; 4 nM fluorescein-SRC-1 NR2 peptide, LBD diluted 2-fold from 10 uM (ERα) or 20 uM (ERβ); with BPA at 20 uM (ERα) or 40 uM (ERβ); 20 mM Tris pH 8.0, 150 mM NaCl, 5 mM DTT, 10% glycerol.

The target of experiment [3] is T1, human wt-ERβ LBD (estrogen receptor …). The experiment is described as above.
Experiment [4] addresses T2, human wt-ERα LBD (estrogen receptor …). The experiment can be described thus: fluorescence polarisation; fluorescence anisotropy; 4 nM fluorescein-SRC-1 NR2 peptide, LBD diluted 2-fold from 10 uM (ERα) or 20 uM (ERβ); with DDE at 20 uM (ERα) or 40 uM (ERβ); 20 mM Tris pH 8.0, 150 mM NaCl, 5 mM DTT, 10% glycerol.
Experiment [5] addresses T1, human wt-ERβ LBD (estrogen receptor …). The experiment can be described thus: fluorescence polarisation; fluorescence anisotropy; 4 nM fluorescein-SRC-1 NR2 peptide, LBD diluted 2-fold from 10 uM (ERα) or 20 uM (ERβ); with 4-OP at 20 uM (ERα) or 40 uM (ERβ); 20 mM Tris pH 8.0, 150 mM NaCl, 5 mM DTT, 10% glycerol.
Experiment [6] has as its target T2, human wt-ERα LBD (estrogen receptor …). The experiment in a line: fluorescence polarisation; fluorescence anisotropy; 4 nM fluorescein-SRC-1 NR2 peptide, LBD diluted 2-fold from 10 uM (ERα) or 20 uM (ERβ); with α-ZA at 20 uM (ERα) or 40 uM (ERβ); 20 mM Tris pH 8.0, 150 mM NaCl, 5 mM DTT, 10% glycerol.
The target of experiment [7] is T1, human wt-ERβ LBD (estrogen receptor …). The experiment in a line: fluorescence polarisation; fluorescence anisotropy; 4 nM fluorescein-SRC-1 NR2 peptide, LBD diluted 2-fold from 10 uM (ERα) or 20 uM (ERβ); with chlordecone at 20 uM (ERα) or 40 uM (ERβ); 20 mM Tris pH 8.0, 150 mM NaCl, 5 mM DTT, 10% glycerol.
Experiment [8] shares this target. The experiment can be described thus: fluorescence polarisation; fluorescence anisotropy; 4 nM fluorescein-SRC-1 NR2 peptide, LBD diluted 2-fold from 10 uM (ERα) or 20 uM (ERβ); with butylparaben at 20 uM (ERα) or 40 uM (ERβ); 20 mM Tris pH 8.0, 150 mM NaCl, 5 mM DTT, 10% glycerol.

Where no end group is shown, it is not given here. fluorescein = fluorescein label on the N-terminus of the peptide

T1 sequence (Q92731 261-502): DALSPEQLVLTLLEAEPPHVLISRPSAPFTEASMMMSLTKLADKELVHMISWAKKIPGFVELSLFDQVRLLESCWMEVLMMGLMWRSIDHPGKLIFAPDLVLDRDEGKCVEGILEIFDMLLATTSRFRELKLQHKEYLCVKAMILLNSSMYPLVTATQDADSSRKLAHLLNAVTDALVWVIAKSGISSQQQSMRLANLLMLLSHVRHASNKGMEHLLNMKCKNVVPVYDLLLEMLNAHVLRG

B1: fluorescein-RHKILHRLLQEGS peptide corresponding to the NR box 2-binding motif of SRC-1 (peptide)
peptide: fluorescein-RHKILHRLLQEGS
notes: also called SRC-1 NR2 peptide; fluorescein-labeled SRC-1 NR2 peptide; source: bought: EZbiolab
Regarding B1, the dissociation constant (Kd) came to 680 nM in experiment [1]; 1760 nM in experiment [2]; 1310 nM in experiment [3]; 4100 nM in experiment [4]; 1550 nM in experiment [5]; 330 nM in experiment [6]. Besides, the figures for the Kd in experiment [7] and in experiment [8] were 9130 nM and 1130 nM, respectively.

The Kd is the concentration at which binding is half-saturated. Low readings indicate a tighter complex, high ones a looser complex.
